Measured values: US9029508 (dated 2015)

Molecular target: DLL4 (human, UniProt Q9NR61)
Test: ELISA

DLL4, sequence (Q9NR61 27-524): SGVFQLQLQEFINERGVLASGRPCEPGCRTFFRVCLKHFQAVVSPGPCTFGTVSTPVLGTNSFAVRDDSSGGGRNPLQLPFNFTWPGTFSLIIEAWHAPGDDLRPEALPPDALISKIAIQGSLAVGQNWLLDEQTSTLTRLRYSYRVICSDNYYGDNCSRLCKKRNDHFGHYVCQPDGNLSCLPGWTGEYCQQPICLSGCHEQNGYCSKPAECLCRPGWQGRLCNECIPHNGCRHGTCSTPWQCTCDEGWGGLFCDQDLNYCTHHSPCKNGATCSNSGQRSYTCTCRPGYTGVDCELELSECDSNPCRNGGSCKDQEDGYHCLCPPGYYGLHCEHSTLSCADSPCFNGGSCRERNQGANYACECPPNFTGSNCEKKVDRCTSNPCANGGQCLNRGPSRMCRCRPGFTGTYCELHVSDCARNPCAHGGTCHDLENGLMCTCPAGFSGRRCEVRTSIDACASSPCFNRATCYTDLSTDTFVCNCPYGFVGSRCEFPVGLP

Row | Binder | EC50 [nM]
1 | DVD468 DLL4 arm (antibody, DVD-Ig inner) chain 1: EVQLVESGGGLVQPGGSLRLSCAASGFTFTDNWISWVRQAPGKGLEWVGYISPNSGFTYYADSVKGRFTISADTSKNTAYLQMNSLRAEDTAVYYCARDNFGGYFDYWGQGTLVTVSS chain 2: DIQMTQSPSSLSASVGDRVTITCRASQDVSTAVAWYQQKPGKAPKLLIYSASFLYSGVPSRFSGSGSGTDFTLTISSLQPEDFATTYYCQQSYTGTVTFGQGTKVEIKR | 2.28
2 | DVD484 DLL4 arm (antibody, DVD-Ig inner) chain 1: EVQLVESGGGLVQPGGSLRLSCAASGFTFTDNWISWVRQAPGKGLEWVGYISPNSGFTYYADSVKGRFTISADTSKNTAYLQMNSLRAEDTAVYYCARDNFGGYFDYWGQGTLVTVSS chain 2: DIQMTQSPSSLSASVGDRVTITCRASQDVSTAVAWYQQKPGKAPKLLIYSASFLYSGVPSRFSGSGSGTDFTLTISSLQPEDFATTYYCQQSYTGTVTFGQGTKVEIKR | 1.75
3 | DVD485 DLL4 arm (antibody, DVD-Ig outer) chain 1: EVQLVESGGGLVQPGGSLRLSCAASGFTFTDNWISWVRQAPGKGLEWVGYISPNSGFTYYADSVKGRFTISADTSKNTAYLQMNSLRAEDTAVYYCARDNFGGYFDYWGQGTLVTVSS chain 2: DIQMTQSPSSLSASVGDRVTITCRASQDVSTAVAWYQQKPGKAPKLLIYSASFLYSGVPSRFSGSGSGTDFTLTISSLQPEDFATTYYCQQSYTGTVTFGQGTKVEIKR | 1.41
4 | DVD477 DLL4 arm (antibody, DVD-Ig outer) chain 1: EVQLVESGGGLVQPGGSLRLSCAASGFTFTDNWISWVRQAPGKGLEWVGYISPNSGFTYYADSVKGRFTISADTSKNTAYLQMNSLRAEDTAVYYCARDNFGGYFDYWGQGTLVTVSS chain 2: DIQMTQSPSSLSASVGDRVTITCRASQDVSTAVAWYQQKPGKAPKLLIYSASFLYSGVPSRFSGSGSGTDFTLTISSLQPEDFATTYYCQQSYTGTVTFGQGTKVEIKR | 0.69
5 | DVD470 DLL4 arm (antibody, DVD-Ig inner) chain 1: EVQLVESGGGLVQPGGSLRLSCAASGFTFTDNWISWVRQAPGKGLEWVGYISPNSGFTYYADSVKGRFTISADTSKNTAYLQMNSLRAEDTAVYYCARDNFGGYFDYWGQGTLVTVSS chain 2: DIQMTQSPSSLSASVGDRVTITCRASQDVSTAVAWYQQKPGKAPKLLIYSASFLYSGVPSRFSGSGSGTDFTLTISSLQPEDFATTYYCQQSYTGTVTFGQGTKVEIKR | 0.19
6 | DVD467 DLL4 arm (antibody, DVD-Ig outer) chain 1: EVQLVESGGGLVQPGGSLRLSCAASGFTFTDNWISWVRQAPGKGLEWVGYISPNSGFTYYADSVKGRFTISADTSKNTAYLQMNSLRAEDTAVYYCARDNFGGYFDYWGQGTLVTVSS chain 2: DIQMTQSPSSLSASVGDRVTITCRASQDVSTAVAWYQQKPGKAPKLLIYSASFLYSGVPSRFSGSGSGTDFTLTISSLQPEDFATTYYCQQSYTGTVTFGQGTKVEIKR | 0.54
7 | DVD458 DLL4 arm (antibody, V domains shown, DVD-Ig inner) VH: QVQLVQSGAEVKKPGASVKISCKASGYSFTAYYIHWVKQAPGQGLEWIGYISSYNGATNYNQKFKGRVTFTTDTSTSTAYMELRSLRSDDTAVYYCARDYDYDVGMDYWGQGTLVTVSS VL: DIVMTQSPDSLAVSLGERATISCRASESVDNYGISFMKWFQQKPGQPPKLLIYAASNQGSGVPDRFSGSGSGTDFTLTISSLQAEDVAVYYCQQSKEVPWTFGGGTKVEIKR | 1.54
8 | DVD452 DLL4 arm (antibody, V domains shown, DVD-Ig inner) VH: QVQLVQSGAEVKKPGASVKISCKASGYSFTAYYIHWVKQAPGQGLEWIGYISSYNGATNYNQKFKGRVTFTTDTSTSTAYMELRSLRSDDTAVYYCARDYDYDVGMDYWGQGTLVTVSS VL: DIVMTQSPDSLAVSLGERATISCRASESVDNYGISFMKWFQQKPGQPPKLLIYAASNQGSGVPDRFSGSGSGTDFTLTISSLQAEDVAVYYCQQSKEVPWTFGGGTKVEIKR | 0.34
9 | DVD445 DLL4 arm (antibody, V domains shown, DVD-Ig outer) VH: QVQLVQSGAEVKKPGASVKISCKASGYSFTAYYIHWVKQAPGQGLEWIGYISSYNGATNYNQKFKGRVTFTTDTSTSTAYMELRSLRSDDTAVYYCARDYDYDVGMDYWGQGTLVTVSS VL: DIVMTQSPDSLAVSLGERATISCRASESVDNYGISFMKWFQQKPGQPPKLLIYAASNQGSGVPDRFSGSGSGTDFTLTISSLQAEDVAVYYCQQSKEVPWTFGGGTKVEIKR | 0.17
10 | DVD461 DLL4 arm (antibody, V domains shown, DVD-Ig outer) VH: QVQLVQSGAEVKKPGASVKISCKASGYSFTAYYIHWVKQAPGQGLEWIGYISSYNGATNYNQKFKGRVTFTTDTSTSTAYMELRSLRSDDTAVYYCARDYDYDVGMDYWGQGTLVTVSS VL: DIVMTQSPDSLAVSLGERATISCRASESVDNYGISFMKWFQQKPGQPPKLLIYAASNQGSGVPDRFSGSGSGTDFTLTISSLQAEDVAVYYCQQSKEVPWTFGGGTKVEIKR | 0.52
11 | DVD460 DLL4 arm (antibody, V domains shown, DVD-Ig inner) VH: QVQLVQSGAEVKKPGASVKISCKASGYSFTAYYIHWVKQAPGQGLEWIGYISSYNGATNYNQKFKGRVTFTTDTSTSTAYMELRSLRSDDTAVYYCARDYDYDVGMDYWGQGTLVTVSS VL: DIVMTQSPDSLAVSLGERATISCRASESVDNYGISFMKWFQQKPGQPPKLLIYAASNQGSGVPDRFSGSGSGTDFTLTISSLQAEDVAVYYCQQSKEVPWTFGGGTKVEIKR | 0.64
12 | DVD464 DLL4 arm (antibody, V domains shown, DVD-Ig inner) VH: QVQLVQSGAEVKKPGASVKISCKASGYSFTAYYIHWVKQAPGQGLEWIGYISSYNGATNYNQKFKGRVTFTTDTSTSTAYMELRSLRSDDTAVYYCARDYDYDVGMDYWGQGTLVTVSS VL: DIVMTQSPDSLAVSLGERATISCRASESVDNYGISFMKWFQQKPGQPPKLLIYAASNQGSGVPDRFSGSGSGTDFTLTISSLQAEDVAVYYCQQSKEVPWTFGGGTKVEIKR | 0.8

Other lines, results leading:

Row | EC50 [nM] | Binder
13 | 0.53 | DVD497 DLL4 arm (antibody, V domains shown, DVD-Ig outer) VH: EVQLQQSGPELVKPGASVKMSCKASGYTFTSYVINWVKQKPGQGLEWIGLINPYNDGTKYNEKFKVKATLTSDKSSSTAYMELSSLTSEDSAVYYCASYYYGSRYYFDYWGQGTTLTVSS VL: DIQMTQSSSYLSVSLGGRVTITCKASDHINNWLAWYQQKPGNAPRLLISGATSLETGVPSRFSGSGSGKDYTLSITSLQTEDVATYYCQQYWSIPLTFGAGTKLELKR
14 | 0.14 | DVD487 DLL4 arm (antibody, V domains shown, DVD-Ig outer) VH: EVQLQQSGPELVKPGASVKMSCKASGYTFTSYVINWVKQKPGQGLEWIGLINPYNDGTKYNEKFKVKATLTSDKSSSTAYMELSSLTSEDSAVYYCASYYYGSRYYFDYWGQGTTLTVSS VL: DIQMTQSSSYLSVSLGGRVTITCKASDHINNWLAWYQQKPGNAPRLLISGATSLETGVPSRFSGSGSGKDYTLSITSLQTEDVATYYCQQYWSIPLTFGAGTKLELKR
15 | 0.21 | DVD509 DLL4 arm (antibody, V domains shown, DVD-Ig outer) VH: EVQLQQSGPELVKPGASVKMSCKASGYTFTSYVINWVKQKPGQGLEWIGLINPYNDGTKYNEKFKVKATLTSDKSSSTAYMELSSLTSEDSAVYYCASYYYGSRYYFDYWGQGTTLTVSS VL: DIQMTQSSSYLSVSLGGRVTITCKASDHINNWLAWYQQKPGNAPRLLISGATSLETGVPSRFSGSGSGKDYTLSITSLQTEDVATYYCQQYWSIPLTFGAGTKLELKR
16 | 0.62 | DVD489 DLL4 arm (antibody, V domains shown, DVD-Ig outer) VH: EVQLQQSGPELVKPGASVKMSCKASGYTFTSYVINWVKQKPGQGLEWIGLINPYNDGTKYNEKFKVKATLTSDKSSSTAYMELSSLTSEDSAVYYCASYYYGSRYYFDYWGQGTTLTVSS VL: DIQMTQSSSYLSVSLGGRVTITCKASDHINNWLAWYQQKPGNAPRLLISGATSLETGVPSRFSGSGSGKDYTLSITSLQTEDVATYYCQQYWSIPLTFGAGTKLELKR
17 | 1.53 | DVD519 DLL4 arm (antibody, V domains shown, DVD-Ig outer) VH: EVQLQQSGPELEKPGASVKISCKASGYSFTGYNMNWVKQSNGKSLEWIGNIDPYFGGTNYNQKFKGKATLTVDKSSSTAYMQLKSLTSEDSAVYYCARNYDYDGGCFDYWGQGTTLTVSS VL: QAVVTQESALTTSPGETVTLTCRSSTGAVTTSNYANWVQEKPDHLFTGLIGGTNNRAPGVPARFSGSLIGDKAALTITGAQTEDEAIYFCALWYSNHWVFGGGTKLTVLG
18 | 0.2 | DVD515 DLL4 arm (antibody, V domains shown, DVD-Ig outer) VH: EVQLQQSGPELEKPGASVKISCKASGYSFTGYNMNWVKQSNGKSLEWIGNIDPYFGGTNYNQKFKGKATLTVDKSSSTAYMQLKSLTSEDSAVYYCARNYDYDGGCFDYWGQGTTLTVSS VL: QAVVTQESALTTSPGETVTLTCRSSTGAVTTSNYANWVQEKPDHLFTGLIGGTNNRAPGVPARFSGSLIGDKAALTITGAQTEDEAIYFCALWYSNHWVFGGGTKLTVLG
19 | 0.1 | DVD529 DLL4 arm (antibody, V domains shown, DVD-Ig outer) VH: EVQLQQSGPELEKPGASVKISCKASGYSFTGYNMNWVKQSNGKSLEWIGNIDPYFGGTNYNQKFKGKATLTVDKSSSTAYMQLKSLTSEDSAVYYCARNYDYDGGCFDYWGQGTTLTVSS VL: QAVVTQESALTTSPGETVTLTCRSSTGAVTTSNYANWVQEKPDHLFTGLIGGTNNRAPGVPARFSGSLIGDKAALTITGAQTEDEAIYFCALWYSNHWVFGGGTKLTVLG
20 | 0.26 | DVD521 DLL4 arm (antibody, V domains shown, DVD-Ig outer) VH: EVQLQQSGPELEKPGASVKISCKASGYSFTGYNMNWVKQSNGKSLEWIGNIDPYFGGTNYNQKFKGKATLTVDKSSSTAYMQLKSLTSEDSAVYYCARNYDYDGGCFDYWGQGTTLTVSS VL: QAVVTQESALTTSPGETVTLTCRSSTGAVTTSNYANWVQEKPDHLFTGLIGGTNNRAPGVPARFSGSLIGDKAALTITGAQTEDEAIYFCALWYSNHWVFGGGTKLTVLG
21 | 1.71 | DVD512 DLL4 arm (antibody, V domains shown, DVD-Ig inner) VH: EVQLQQSGPELEKPGASVKISCKASGYSFTGYNMNWVKQSNGKSLEWIGNIDPYFGGTNYNQKFKGKATLTVDKSSSTAYMQLKSLTSEDSAVYYCARNYDYDGGCFDYWGQGTTLTVSS VL: QAVVTQESALTTSPGETVTLTCRSSTGAVTTSNYANWVQEKPDHLFTGLIGGTNNRAPGVPARFSGSLIGDKAALTITGAQTEDEAIYFCALWYSNHWVFGGGTKLTVLG
22 | 0.59 | DVD486 DLL4 arm (antibody, DVD-Ig inner) chain 1: EVQLVESGGGLVQPGGSLRLSCAASGFTFTDNWISWVRQAPGKGLEWVGYISPNSGFTYYADSVKGRFTISADTSKNTAYLQMNSLRAEDTAVYYCARDNFGGYFDYWGQGTLVTVSS chain 2: DIQMTQSPSSLSASVGDRVTITCRASQDVSTAVAWYQQKPGKAPKLLIYSASFLYSGVPSRFSGSGSGTDFTLTISSLQPEDFATTYYCQQSYTGTVTFGQGTKVEIKR
